Results as given in the Human Domainome abundance scans (Beltran et al. 2025).

B1: Homeobox protein SIX6, residues 134 to 184; numbered along this chain, O95475 (parent)
chain: CFKERTRHLLREWYLQDPYPNPSKKRELAQATGLTPTQVGNWFKNRRQRDR
B2: Intersectin-2, residues 1129 to 1183; numbered along this chain, Q9NZM3 (parent)
chain: VCQVIAMYDYAANNEDELSFSKGQLINVMNKDDPDWWQGEINGVTGLFPSNYVKM

Variants of: B1
Experiment: abundance fitness (aPCA) (normalised: wild type 0, dead -1); higher = more abundant; growth selection in yeast, the domain comes from the species named
Details: Homo sapiens

Abundance fitness, by site and new letter:
R51: L -0.431
R47: W -0.425 | L -0.633 | M -0.786 | N -0.613 | H -0.762 | A -0.635 | T -0.825 | I -1.01 | V -0.756 | G -0.762 | D -0.84 | Y -0.637 | F -0.501 | C -0.662 | S -0.845 | K -0.861
N45: E -0.266 | C -0.39 | K -0.13 | R -0.062 | H -0.123 | S -0.42 | D -0.261 | T -0.423 | V -0.612 | L -0.401 | W -0.535 | Q -0.303 | G -0.481 | A -0.378 | M -0.386 | F -0.712 | I -0.394
R46: N -0.037 | K -0.151 | A -0.17 | T -0.055 | C -0.203 | W -0.501 | F -0.522 | Q 0.11 | H -0.72 | Y -0.505 | M -0.344 | D -0.728 | E 0.062 | S -0.165 | I -0.845 | L -0.604 | V -0.465

Variants of: B2
Experiment: as above
Details: Homo sapiens

Abundance fitness, by site and new letter:
C2: W -0.122 | G -0.099 | S -0.006 | E -0.3 | D -0.041 | A -0.116 | Y 0.022 | Q -0.107 | N 0.147 | F 0.023 | I -0.116 | L -0.223 | T -0.126 | M -0.13 | P -0.108
V1: Y -0.453 | D -0.043 | C -0.307 | P -0.652 | S -0.21 | N -0.247 | T 0.107 | K 0.089 | E -0.054 | I 0.077 | L -0.206 | M -0.178 | W -0.391 | F 0.04 | R -0.228 | A -0.27
A12: Q -0.046 | I -0.469
